The record followed here is article PMC2532730 (Nucleic Acids Research, 2008).

For the assay, the target named is BLM (Bloom's syndrome helicase), purified recombinant (human, UniProt P54132 1-1417). Put plainly: far-Western, overlay or dot blot.
Chain of BLM (Bloom's syndrome helicase), purified recombinant (P54132 whole entry): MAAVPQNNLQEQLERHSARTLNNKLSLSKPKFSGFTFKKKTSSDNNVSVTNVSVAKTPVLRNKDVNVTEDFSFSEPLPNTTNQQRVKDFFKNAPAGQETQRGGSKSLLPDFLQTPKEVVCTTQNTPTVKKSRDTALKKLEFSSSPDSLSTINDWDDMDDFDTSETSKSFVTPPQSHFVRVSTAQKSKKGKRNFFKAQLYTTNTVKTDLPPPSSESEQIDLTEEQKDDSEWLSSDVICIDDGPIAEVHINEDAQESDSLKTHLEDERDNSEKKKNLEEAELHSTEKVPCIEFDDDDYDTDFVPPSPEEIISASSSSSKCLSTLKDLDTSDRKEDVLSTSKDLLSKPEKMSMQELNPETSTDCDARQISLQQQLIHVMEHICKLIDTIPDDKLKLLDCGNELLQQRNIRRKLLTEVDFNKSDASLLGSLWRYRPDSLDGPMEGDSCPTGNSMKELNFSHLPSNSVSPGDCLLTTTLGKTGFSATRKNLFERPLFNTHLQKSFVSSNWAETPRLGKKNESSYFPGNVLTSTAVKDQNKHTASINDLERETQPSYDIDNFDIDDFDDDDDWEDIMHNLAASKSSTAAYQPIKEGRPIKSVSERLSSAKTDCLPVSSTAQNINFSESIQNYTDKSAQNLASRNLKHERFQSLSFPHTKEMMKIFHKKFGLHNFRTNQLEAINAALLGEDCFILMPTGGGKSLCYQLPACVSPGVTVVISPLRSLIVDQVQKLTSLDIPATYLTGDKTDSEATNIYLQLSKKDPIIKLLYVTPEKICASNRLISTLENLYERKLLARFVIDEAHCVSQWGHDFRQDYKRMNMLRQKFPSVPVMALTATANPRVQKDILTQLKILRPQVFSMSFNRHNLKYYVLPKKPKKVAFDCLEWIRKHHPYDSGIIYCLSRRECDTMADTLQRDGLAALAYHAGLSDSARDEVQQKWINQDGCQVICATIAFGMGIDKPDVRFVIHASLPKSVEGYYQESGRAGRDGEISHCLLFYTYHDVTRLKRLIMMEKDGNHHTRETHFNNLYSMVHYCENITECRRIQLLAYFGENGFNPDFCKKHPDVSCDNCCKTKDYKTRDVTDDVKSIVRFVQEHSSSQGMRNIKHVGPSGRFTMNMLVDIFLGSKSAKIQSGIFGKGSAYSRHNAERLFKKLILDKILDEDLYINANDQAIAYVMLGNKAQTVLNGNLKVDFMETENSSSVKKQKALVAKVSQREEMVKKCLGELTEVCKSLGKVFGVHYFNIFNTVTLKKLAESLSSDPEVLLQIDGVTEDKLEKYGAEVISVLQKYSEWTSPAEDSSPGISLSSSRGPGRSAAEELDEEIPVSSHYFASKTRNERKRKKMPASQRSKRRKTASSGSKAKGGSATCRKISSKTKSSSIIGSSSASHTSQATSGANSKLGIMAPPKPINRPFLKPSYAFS

B1: p12 subunit of the purified four-subunit hPOL δ enzyme (natural protein, human, UniProt Q9HCU8 1-107, looked up)
chain: MGRKRLITDSYPVVKRREGPAGHSKGELAPELGEEPQPRDEEEAELELLRQFDLAWQYGPCTGITRLQRWCRAKQMGLEPPPEVWQVLKTHPGDPRFQCSLWHLYPL
In the case of B1, the binding result was “binds”.

B2: 6xHis-p12 protein (p12, smallest subunit of human DNA polymerase δ), purified recombinant (natural protein, UniProt Q9HCU8 1-107, looked up)
chain: B1 chain
B2: the binding result is on record as “binds”.
